Measurements from patent US6656716 (SUGEN, dated 2003).

Molecular target: T1, SULU1-coiled-coil2 (GST fusion of human SULU1 amino acids 752-898) (human, UniProt Q5R4F3 752-898 (Pongo abelii entry))
T1 construct: Bait made as a C-terminal fusion to GST, expressed in E. coli and immobilised for T7 phage display selection; also called Construct 1; SULU1 Coiled-coil2 bait; not shown: glutathione S-transferase (GST) of the pGEX-4T vector
T1 sequence: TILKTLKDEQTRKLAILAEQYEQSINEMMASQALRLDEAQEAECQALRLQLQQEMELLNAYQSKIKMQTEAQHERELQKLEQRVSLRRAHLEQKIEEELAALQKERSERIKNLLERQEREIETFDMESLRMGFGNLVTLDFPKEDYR
Assay: T7 phage display, H441 cDNA library, immobilised GST-fusion bait
Experimental: Aliquots of refreshed libraries (10^10–10^12 pfu) supplemented with PanMix and a cocktail of […] inhibitors (Sigma P-8465) were incubated for 1–2 hrs at room temperature with the immobilized baits. Unbound phage was extensively washed (at least 4 times) with wash buffer.
Individual plaques were picked into 25 µL of 10 mM EDTA and the phage was disrupted by heating at 70° C. for 10 min. 2 µL of the disrupted phage were added to 50 µL PCR reaction mix. The insert DNA was amplified by 35 rounds of thermal cycling (94° C., 50 sec; 50° C., 1 min; 72° C., 1 min).

B1: GEK2 coiled-coil domain fragment (residues 677-820 of SEQ ID NO:26) displayed on T7 phage (other)
chain: KESMKQKMEEHTQKKQLLDRDFVAKQKEDLELAMKRLTTDNRREICDKERECLMKKQELLRDREAALWEMEEHQLQERHQLVKQQLKDQYFLQRHELLRKHEKEREQMQRYNQRMIEQLKVRQQQEKARLPKIQRSEGKTRMAM
notes: also called GEK2 CC1; GEK2 cc dom; not shown: T7 phage coat protein of the T7Select1-1b vector
binding result: binds
